Experimental findings from patent US20220106391A1 (ZOETIS SERVICES, published 2022) are described below.

The chains are these.
T1: canine beta-NGF (cNGF) (canine, UniProt Q29074 110-229 (pig entry))
T1 construct: also called canine NGF; can NGF
T1 chain: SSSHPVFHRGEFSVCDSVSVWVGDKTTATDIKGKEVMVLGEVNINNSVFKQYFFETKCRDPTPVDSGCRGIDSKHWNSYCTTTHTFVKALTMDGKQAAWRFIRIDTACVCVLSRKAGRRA

B1: H3AQC23L5A (antibody, V domains shown)
VH: EVQLVESGGDLARPGGSLKLSCVVSGFTLTQYGINWVRQAPGKGLQWVTVIWATGATDYNSALKSRFTVSRDNAMNTVYLQMNSLRVEDTAVYYCARDGWWYATSWYFDVWGQGTLVTVSS
VL: DIVMTQTPLSLSVSPGEPASISCKASQDINHYLNWFRQKPDGTVKLLIYYTSSLHSGVPSRFSGSGSGTDFTLRISRVEADDAGVYYCQQGDHFPRTFGQGT
notes: Caninized IgG
B2: H3A02B4VL1 (antibody, V domains shown)
VH: B1 VH
VL: EIVMTQSPASLSLSQEEKVTITCRASQDISNYLNWYQQKPGQAPKLLIYYTSRLHSGVPSRFSGSGSGTDFSFTISSLEPEDVAVYYCQQGNMFPYTFGGGT
notes: Caninized IgG
B3: H3AQC2301B12L1AL1 (antibody, V domains shown)
VH: B1 VH
VL: B1 VL with D28S, S53R, D92S, H93T, F94L
notes: Caninized IgG
B4: H3AQC2301B12L2AL1 (antibody, V domains shown)
VH: B1 VH
VL: B1 VL with D28S, S53R, D92S, H93T, F94L
notes: Caninized IgG
B5: H3AQC2301B12L5AL2 (antibody, V domains shown)
VH: B1 VH
VL: B1 VL with K24R, N30S, H31N, D92S, H93T, F94L
notes: Caninized IgG
B6: H3A02B4L1AL1 (antibody, V domains shown)
VH: B1 VH
VL: B2 VL with R24K, S30N, N31H
notes: Caninized IgG
B7: H3AQC2301B12LC (antibody, V domains shown)
VH: B1 VH
VL: B1 VL with K24R, N30S, H31N, S53R, D92S, H93T, F94L
notes: Caninized IgG, light chain QC2301B12VK
B8: 01B12 Chimera (antibody, V domains shown)
VH: QVQLKESGPGLVAPSQSLSITCTVSGFSLTGYGVNWVRQPPGKGLEWLGMIWGDGSTDYNSALKSRLSISKDNSKSQVFLKMNSLQTDDTARYYCARDGYYYGTTWYFDVWGAGTTVTV
VL: DIQMTQTTSSLSASLGDRVTISCRASQDISNYLNWYQQKPDGTIKLLIYYTSRLHSGVPSRFSGSGSGTDYSLTISNLEQEDIATYFCQQGSTLPRTFGGGT
notes: Mouse variable domains on canine IgG constant regions; 184 and 160; also called Chim-01B12
B9: 182m72 (antibody, V domains shown)
VH: B1 VH
VL: B1 VL with S56Q
notes: 51 except in CDR2 (TSSLHQ); 51 (CDR2 Pos. 1-6 = residues 51-56); also called Can-182-m72
B10: 182m114 (antibody, V domains shown)
VH: B1 VH
VL: B1 VL with S52A, S56Q
notes: 51 except in CDR2 (TASLHQ); 51 (CDR2 Pos. 1-6 = residues 51-56); also called Can-182-m114
B11: 182m70 (antibody, V domains shown)
VH: B1 VH
VL: B1 VL with S56G
notes: 51 except in CDR2 (TSSLHG); 51 (CDR2 Pos. 1-6 = residues 51-56); also called Can-182-m70
B12: 182m75 (antibody, V domains shown)
VH: B1 VH
VL: B1 VL with S56V
notes: 51 except in CDR2 (TSSLHV); 51 (CDR2 Pos. 1-6 = residues 51-56); also called Can-182-m75
B13: 182m43 (antibody, V domains shown)
VH: B1 VH
VL: B1 VL with S52H, S56N
notes: 51 except in CDR2 (THSLHN); 51 as printed; also called Can-182-m43
B14: H3AQC23L2AL3 (antibody, V domains shown)
VH: B1 VH
VL: B1 VL with K24R, D28S, N30S, H31N, Y32N, T51I, L54F, R96Y
B15: H3AQC23L2AL1 (antibody, V domains shown)
VH: B1 VH
VL: B1 VL with D28S, T51I, L54F, G91S, D92H, H93T, F94L, R96Y
B16: H3AQC23L6A (antibody, V domains shown)
VH: B1 VH
VL: B1 VL with T51V, S52T, S56A
B17: H3AQC2301B12L6AL2 (antibody, V domains shown)
VH: B1 VH
VL: B1 VL with K24R, N30S, H31N, T51V, S52T, S56A, D92S, H93T, F94L
B18: 15H02-02E01 (antibody, IgG1, V domains shown)
VH: EVQLEQSGPGLVAPSQSLSITCTVSGFSLTGYGVNWVRQPPGKGLEWLGMIWGDGSTDYNSALKSRLSISKDNSKSQVFLKMNSLQTDDTARYYCARDGYYYGTTWYFDVWGAGTTVTVSS
VL: B8 VL with Q3V, M4L, T7S
B19: 20D11-02E10 (antibody, IgG1, V domains shown)
VH: B18 VH with Q6E
VL: DIVITQTPLSLPVSLGDQASISCRSSQSIVHINRHTYLGWYLQKPGQSLKLLIYGVSNRFSGVPDRFSGSGSGTDFTLKISRVEAEDMGVYYCFQGTHVPFTFGSGT
B20: 02B04-02A08 (antibody, V domains shown)
VH: EVKLEESGPGLVAPSQSLSITCTVSGFSLTGYGVNWVRQPPGKGLEWLGMIWGDGSTDYNSALKSRLNISKDNSKSQVFLKMDSLQTDDTARYYCARGGYDYDVPFFDYWGQGTTLTVSS
VL: B8 VL with Q3V, I44V, S92N, T93M, L94F, R96Y, F98L
B21: 30E01-02A11 (antibody, IgG1, V domains shown)
VH: B18 VH with E1Q, Q3K, Q6E
VL: B8 VL with Q3V, M4L
B22: 26C08-02F06 (antibody, IgG1, V domains shown)
VH: B20 VH with N68S, D83N, P105S
VL: B8 VL with Q3V, M4L, I44V, L54F, Q80H, S92N, R96Y
B23: 01B12-02B08 (antibody, IgG1, V domains shown)
VH: B18 VH with Q3K, E5Q, Q6E
VL: B8 VL with Q3V, T7S
B24: 31F05-02B03 (antibody, IgG1, V domains shown)
VH: B18 VH with E5Q
VL: B8 VL
B25: 16G01-02F03 (antibody, IgG2a, V domains shown)
VH: EVQLQESGAELVKPGASVKLSCKASGYTFTNYWMHWVKQRPGQGLEWIGHIDPSDGETHYNQKFKDKATLTVDKSSSTAYMQLTGLTSEDSAVYYCARFLPDYWGQGTSVTVSS
VL: DIVLTQTPAIMSASPGEKVTMTCRASSSVSSIYLHWYQQKPGSSPKLWIYSTSNLASGVPARFSGSGSGTSYSLTVSSVEAEDAATYYCQLYDNSPLTFGAGT

Residue numbers refer to the chain shown, from its start.

In the first test the target is T1, canine beta-NGF (cNGF). The test is described as follows: SPR (Biacore). A general note: In SPR one partner is held on a chip, and binding of the other changes the refractive index at the surface.
As usually defined, the Kd is the concentration at which binding is half-saturated. Read a high Kd as weaker binding. For B1, binding was characterised by a dissociation constant (Kd) of 0.089 nM.
The molecule B2 showed a Kd of 0.16 nM.
On the same count and under the same terms, next, B3: 1.07 nM; B4: 0.435 nM.
The same measure, in the same setting: next, B5: 12.5 nM; B6: 2 nM.
On the same count and under the same terms, next, B7: 1.13 nM.
The molecule B8 returned an equilibrium dissociation constant (Kd) of 1.18 nM.

The target of a further test is T1, canine beta-NGF (cNGF). In words: SPR (Biacore), cNGF binding; KD column of Table 7.
Consider B9, for which the Kd was 0.0741 nM.
Same read-out and setting: with B10 the figure was 0.707 nM.
For the molecule B11, the Kd stood at 4.9 nM.
Still for that read-out and setting: with B12 the figure was 2.03 nM; with B13, 4.32 nM.

In another test the target is T1, canine beta-NGF (cNGF). In words: SPR (Biacore), cNGF binding.
What is called koff is the rate constant with which the complex falls apart. High values mean a short-lived complex, low ones a long-lived complex. As usually defined, the kon is a measure of how fast the partners come together. The molecule B9 displayed a Kd of 0.0741 nM, a koff of 2.79e-07 s⁻¹ and a kon of 3760 M⁻¹ s⁻¹.
In turn, B10 gave a Kd of 0.707 nM, a koff of 1.27e-06 s⁻¹ and an association rate constant (kon) of 1790 M⁻¹ s⁻¹.
Molecule B11 showed a Kd of 4.9 nM, a koff of 9.46e-06 s⁻¹ and a kon of 1930 M⁻¹ s⁻¹.
The corresponding values for B12 are 2.03 nM, 8.99e-07 s⁻¹ and 444 M⁻¹ s⁻¹.
The molecule B13 returned a dissociation constant (Kd) of 4.32 nM, a koff of 3.32e-06 s⁻¹ and an on-rate (kon) of 769 M⁻¹ s⁻¹.

Another test deals with T1, canine beta-NGF (cNGF). The test is described as follows: cell-based or functional assay.
On to B1, for which the “IC50 [nM] (TrkA cell based assay)” value is 2.32 nM.
Same read-out and setting: with B2 the figure was 1.4 nM; with B14, 2.57 nM; with B15, 4.4 nM.
Same read-out and setting: next, B3: 0.65 nM; B16: 16.9 nM.
Turning to B4, the “IC50 [nM] (TrkA cell based assay)” value is 0.99 nM.
With B17, the “IC50 [nM] (TrkA cell based assay)” value turned out to be 10 nM.
For B5, the “IC50 [nM] (TrkA cell based assay)” value came to 9.7 nM.
As to B6, the “IC50 [nM] (TrkA cell based assay)” value came out at 1.56 nM.
On the same count and under the same terms, next, B7: 0.8 nM.
Consider B8, for which the “IC50 [nM] (TrkA cell based assay)” value was found to be 1.02 nM.

The target of another test is T1, canine beta-NGF (cNGF). The test is described as follows: cell-based or functional assay. This is another data set of the same source.
For B18, the “Average Max % Inhib. (pERK 1/2, CHO cells expressing human TrkA)” value was found to be 88.2% and the “IC50 (pERK 1/2, CHO cells expressing human TrkA)” value is 18.8 nM.
The corresponding values for B19 are 78.1% and 5.5 nM.
Turning to B20, the “Average Max % Inhib. (pERK 1/2, CHO cells expressing human TrkA)” value turned out to be 82.2% and the “IC50 (pERK 1/2, CHO cells expressing human TrkA)” value was found to be 4 nM.
For B21, the “Average Max % Inhib. (pERK 1/2, CHO cells expressing human TrkA)” value came out at 72.4% and the “IC50 (pERK 1/2, CHO cells expressing human TrkA)” value was determined as 9.8 nM.
Regarding B22, the “Average Max % Inhib. (pERK 1/2, CHO cells expressing human TrkA)” value came out at 57.4% and the “IC50 (pERK 1/2, CHO cells expressing human TrkA)” value turned out to be 7.1 nM.
As to B23, the “Average Max % Inhib. (pERK 1/2, CHO cells expressing human TrkA)” value stood at 87.1% and the “IC50 (pERK 1/2, CHO cells expressing human TrkA)” value came to 4.7 nM.
With B24, the “Average Max % Inhib. (pERK 1/2, CHO cells expressing human TrkA)” value amounted to 86.2% and the “IC50 (pERK 1/2, CHO cells expressing human TrkA)” value is 4.1 nM.
For B25, the “Average Max % Inhib. (pERK 1/2, CHO cells expressing human TrkA)” value turned out to be 27.7%.
